From the nanobody polyreactivity screen of Harvey et al. (2022) come the findings set out here.

The data set can be described thus: yeast display, Sf9 membrane polyspecificity reagent, FACS + sequencing; frameworks hold sequencing errors. Put shortly:
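A nanobody's polyreactivity label depends on the gate it was sorted from. Yeast display cells were stained with 10% biotinylated, detergent-solubilized Sf9 membrane reagent for 1 hour at 4 °C, enriched on streptavidin microbeads and sorted by FACS. The low and high (top ~1%) gates were set on anti-HA fluorescence for expression and streptavidin fluorescence for reagent binding.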
As for “QVQLVESGGGLVQAGGSLRLSCAASGSTVWWYAMGWDRQAPRKERELVAVITRSSDSTSYADSVKGRFTLSRDNAKNTVFLQMNSLKPEDTAVYYCAALYRSYRYEYYYWGQATQVTVSS”, the “polyreactivity (PSR sort gate)” value is “high polyreactivity”.
As for “QVQLVESGGGLVQAGGSLRLSCAASGSTVYAYAMGWYRQAPGKERELVAAIDSGGSTYYADSVKGRFTISRDNAKNTVNLQMNSLKPEDTAVYYCAVRHRYTRAYWGRDYWGQGTQVTVSS”, the “polyreactivity (PSR sort gate)” value is listed as “low polyreactivity”.
Next, “QVQLVESGGGLVQAGGSLRLSCAASGSTYDPNAMGRYRQAPGKERELVAAISWSGGSTYYADSVKGRFTISRDNAKNTVYLQMYSLKPEDTAVSYCNAQFYDSYSYTNDYWGQGTLVTVSS”: “low polyreactivity”.
Turning to “QVQLVESGGGLVQAGGSLRLSCAASGSTYEYNAMGWSRQAPGKERELVASSTNYADSVKGRFTISRDNAKNTVYLQMNSLKPEDTAVYYCAREQCVNRNHDYWGQGTQVTVSS”, the “polyreactivity (PSR sort gate)” value was “low polyreactivity”.
In the case of “QVQLVESGGGLVQAGGSLRLSCAASGSTYEYNAMGWYRQAPGKERELVAGISSGGSTYYADSVKGRFTISRDNAKNTVYLQMNSLKPEDTAVYYCATSEASVATWDRYTELDYWGQGSQVTVSS”, the “polyreactivity (PSR sort gate)” value is reported as “low polyreactivity”.
Under “QVQLVESGGGLVQAGGSLRLSCAASGSTYGDNAMGWYRQAPGKERELVAAISSGGGSTYYADSVKGRFTISRDNAKNTVYLQMYSLNPEDTAVYYCGADGTLTLYRYILDYWGQGYQVTVSS” stands “low polyreactivity”; under “QVQLVESGGGLVQAGGSLRLSCAASGSTYGGNAMGWYRQAPGKERELVAAISRSGSRTYYADSVKGRFTISRDNAKNTVYLQMNSLKPEDTAVYYCAARRWVWTVRYNYWGQGTQVTVSS”, “high polyreactivity”.
As to “QVQLVESGGGLVQAGGSLRLSCAASGSTYGRNAMGWYRQATGKERELVAAINSGGGTYYADSVKGRFTISRDNAKNTVYLQMYSLKPEDTAVYYCAAARRYGKYDYWGQGTQVTVSS”, the “polyreactivity (PSR sort gate)” value is on record as “low polyreactivity”.
With “QVQLVESGGGLVQAGGSLRLSCAASGSTYGWNAMGWSRQAPGKERELVAAISSSGGITYYADSVKGRFTISRDNAKNTVYLQMNSLKPEDTAVYYCAAERDVDWVNYWGQGTQVTVSS”, the “polyreactivity (PSR sort gate)” value is recorded as “low polyreactivity”.
As for “QVQLVESGGGLVQAGGSLRLSCAASGSTYGYAMGWYRQAPGKEMKLVARITWRGGSTSYADSVKGRFTITRDNAKNTVYLQMNSLKPEDTAVYYCADGFYFQVYTYVRKRYYYWGQGTQVTVSS”, the “polyreactivity (PSR sort gate)” value is “high polyreactivity”.
For “QVQLVESGGGLVQAGGSLRLSCAASGSTYGYYTMGWYRQAPGKERELVAAITWSGGSTYYADSVKGRFTISRDIAKNTVYLQMNSLKPEDTAVYYCAADDYWTPFGYWGQCTQVTVSS”, the “polyreactivity (PSR sort gate)” value is “low polyreactivity”.
Turning to “QVQLVESGGGLVQAGGSLRLSCAASGSTYRANAMGWYRQAPVKERELFASITNSGSSTYYADSVKGRFTISRDNAKNTVYLQMNSLKPEDTAVYYCNAERTIAGYYYWGQGTQVTVSS”, the “polyreactivity (PSR sort gate)” value is “low polyreactivity”.
In the case of “QVQLVESGGGLVQAGGSLRLSCAASGSTYRGYAMGWYRQAPGKERELVAAISWSGAATYYADSVKGRFTISRDNAKNTVYLQMNSLKPEDTAVYYCAKVARQNWFRYNYDYWGQGTQVTVSS”, the “polyreactivity (PSR sort gate)” value is “high polyreactivity”.
For the sequence “QVQLVESGGGLVQAGGSLRLSCAASGSTYRWYAMGWYRQAPGKEREFVAAITWSGGRTYYADSVKGRFTISRDNAKNTVYLQMNSLKTEDTAVYYCNADDYGYSFNYWGQGTQVTVSS”, the “polyreactivity (PSR sort gate)” value is “high polyreactivity”.
For “QVQLVESGGGLVQAGGSLRLSCAASGSTYRYNAMGWYRQAPGKERELVAAITSGGRTNYADSVKGRFTISRDNAKITVYLQMNSLKPEDTAVYYCAARRYGRNWHYDYWGQGTQVTVSS”, the “polyreactivity (PSR sort gate)” value is “high polyreactivity”.
For “QVQLVESGGGLVQAGGSLRLSCAASGSTYSWYAMGWYRQAPGKERELVASISWRGGSTYYADSVKGRFTISRDNAKNTVYLQMNSLKPEDTAVYYCAADYYWKLFHEPPAVYDYDYWGQCTQVTVSS”, the “polyreactivity (PSR sort gate)” value is given as “low polyreactivity”.
On to “QVQLVESGGGLVQAGGSLRLSCAASGSTYTGYTMGWYRQAPGKERELVAAITYRGGSTYYADSVKGRFTISRDNAKNTVYLQMNSQKPEDTPVFYCAAVPEYYEYSPYDYWGQGTQVTVSS”, for which the “polyreactivity (PSR sort gate)” value is “low polyreactivity”.
As to “QVQLVESGGGLVQAGGSLRLSCAASGSTYTLNAMGWYRQAPGKERELVADITSGGGGTYYADSVKGRFTISRDNAKNTVYLQMNSLKPEDTAVYYCAADDFHSLLGYWYGLFDYWGQGTQVTVSS”, the “polyreactivity (PSR sort gate)” value was “low polyreactivity”.
For the sequence “QVQLVESGGGLVQAGGSLRLSCAASGSTYTRYAMGWYRQATGKDRELVAAISRSGGSTYYADSVKGRFTISRDNAKNTVYLQMNSLKPEDTAVYYCRKFTLTTVTNYWGQGTQVTVSS”, the “polyreactivity (PSR sort gate)” value is recorded as “high polyreactivity”.
For the sequence “QVQLVESGGGLVQAGGSLRLSCAASGSTYVYAMGLYRQAPGKERELVASISWSDSSTYYADSVKGRFTISRDNAKNTVYLQMNSLKPEDTAVYYCNADQGTRDSDYWGQGTQVTVSS”, the “polyreactivity (PSR sort gate)” value is listed as “low polyreactivity”.
In the case of “QVQLVESGGGLVQAGGSLRLSCAASGSTYYPNAMGWYRQAPGKERELVAAISRGTRTKYADSVKGRFTISRDNAKNTVYLQMNSLKPEDTAVYYCAVLTYRGRFEYWGQGTQVTVSS”, the “polyreactivity (PSR sort gate)” value is reported as “high polyreactivity”.
Under “QVQLVESGGGLVQAGGSLRLSCAASGSTYYYAMGWYRQAPGKEREFVAAISRDGSSTYYADSVKGRFTISRDNAKYTVYLQMNSLKPEDTAVYYCAASIIRFSTSADKLVTSRYYYWGQGTQVTVSS” stands “high polyreactivity”; under “QVQLVESGGGLVQAGGSLRLSCAASGTFAFYTMGWYRQAPGKERELVAAISWDGGDTYYADSVKGRFTISRDNAKNNVYLQMNSLKPEDTAVYYCAAELGYYVYGSYYSYDYCGQGTQVTVSS”, “high polyreactivity”.
For the sequence “QVQLVESGGGLVQAGGSLRLSCAASGTFAGNAMGWYRQAPGKERELVAAITTGGRTYYADSVKGRFTISRDNAKNTVYLQMNSLKPEDTAVYYCAADRIRDLEFDYWGQGTQVTVSS”, the “polyreactivity (PSR sort gate)” value is “low polyreactivity”.
Consider “QVQLVESGGGLVQAGGSLRLSCAASGTFARYAMGWYRQAPGKERELVAAITRRGGNTYYADSVKGRFTISRDNAKNTVYLQMNSLKPEDTAVYYCARDYYYNYWWMDYWGQGTQVTVSS”, for which the “polyreactivity (PSR sort gate)” value is “high polyreactivity”.
In the case of “QVQLVESGGGLVQAGGSLRLSCAASGTFPVYTMGWYRQAPGKERELVAAISRNGGSTYYADSVKGRFTISRDNAKNTVYLQMNSLKPEDTAVYYCAAVKVKRPGMDYWGQGTQVTVSS”, the “polyreactivity (PSR sort gate)” value is recorded as “high polyreactivity”.
Regarding “QVQLVESGGGLVQAGGSLRLSCAASGTFSFYAMGWYRQAPGKERELVAAITRSSSRTYYADSVKGRFTISRDNAKNTVYLQMNSLKPEDTAVYYCRAKQVNRFDYWGQGTQVTVSS”, the “polyreactivity (PSR sort gate)” value is listed as “high polyreactivity”.
In the case of “QVQLVESGGGLVQAGGSLRLSCAASGTFSPYAMGWYRQAPGKESELVAVITSNTGRTYADSVKGRFTISRDNAKKTVYLQMNSLKPEDTAVYYCAARSTYRHWYRTGSRFDYWGQGTQVTVSS”, the “polyreactivity (PSR sort gate)” value was “low polyreactivity”.
In the case of “QVQLVESGGGLVQAGGSLRLSCAASGTFSSNAMGWYRQAPGKERELVAAISSTGTTTYYADSVKGRFTISRDNAKNTVYLQMNSLKPEDTAVYYCAKYAYTSVHSWYYYWGQGTQVTVSS”, the “polyreactivity (PSR sort gate)” value is recorded as “high polyreactivity”.
Take “QVQLVESGGGLVQAGGSLRLSCAASGTFSYYAMGWYRQAPGKERELVATISWSGDSTYYADSVKGRFTISRDNAKNTVYLQMNSLNPEDTAVYYCNADHFQWGAGYDYWGQGTQVTVSS”: the “polyreactivity (PSR sort gate)” value is reported as “low polyreactivity”.
As for “QVQLVESGGGLVQAGGSLRLSCAASGTFVYYAMGWYRQAPGKERELVAVISLNGGITYYADSVKGRFTISRDNAKNTVYLQMNSLKPEDTAVYYCNAQFYNSGWSFKSYYWGHGTQVTVSS”, the “polyreactivity (PSR sort gate)” value is reported as “low polyreactivity”.
Regarding “QVQLVESGGGLVQAGGSLRLSCAASGTFYLYAIGWYRQAPGNERELVAALTRGGSTNYADSVKGRFTISRDNAKNTVDLQMNSLKPEDTAVYYCAAGSSRVFRKAGITRPSGLYYYWGQGTQVTVSS”, the “polyreactivity (PSR sort gate)” value was “high polyreactivity”.
In the case of “QVQLVESGGGLVQAGGSLRLSCAASGTFYLYAMGWYRQAPGKERELVAAISGSGSTNYADSVKGRFTISRDNAKNTVYLQMNSLKPEDTAVYYCAAYQRYDSVTGARYEYDYWGQGTQVTVSS”, the “polyreactivity (PSR sort gate)” value is “low polyreactivity”.
For “QVQLVESGGGLVQAGGSLRLSCAASGTFYLYAMGWYRQAPGKERELVARINSSGSTNLRRLCEGALHNFTRQCEEYRLFTDEQPETGRYRVYYCNADTKRSSREYDYWGQGTQVTVSS”, the “polyreactivity (PSR sort gate)” value is reported as “low polyreactivity”.
As to “QVQLVESGGGLVQAGGSLRLSCAASGTICYPYAMGWYRQAPGKERELVASISWSGGSTRYADSVKGRFTISRDNAKNTVYLQMNSLKPEDTAVYYCAARYILSKYGSGVRYNYWGQGTQVTVSS”, the “polyreactivity (PSR sort gate)” value is on record as “high polyreactivity”.
Next, “QVQLVESGGGLVQAGGSLRLSCAASGTIFQSNAMGWYRQAPGKERELVAAISSSGGRTYYADSVKGRFTISRDNAKNTVYLQMNSLKPEDTAVYYCADLGYPDGGWGQGTQVTVSS”: “low polyreactivity”.
For the sequence “QVQLVESGGGLVQAGGSLRLSCAASGTIYYNTMGWYRQAPGKERELVASISRTGSTKYADSVKGRFTISRDNAKNTVYLQMNSLKPEDTAVYYCAADYLAFREGAVWLYDYWGQGTQVTVSS”, the “polyreactivity (PSR sort gate)” value was “high polyreactivity”.
As for “QVQLVESGGGLVQAGGSLRLSCAASGTMGSYRQAPGKERELVAAISQSGGSTYYADSVKGRFTISRDNAKNTVYLQMNSLKPEDTAVYYCAVDPRYGHPRRDYWGQGTQVTVSS”, the “polyreactivity (PSR sort gate)” value is “low polyreactivity”.
Turning to “QVQLVESGGGLVQAGGSLRLSCAASGTMPGYAMGWYRQAPGKERELVAAITWSDDSTFYADSVKGRFTISRDNAKNTVYLQMNSLKPEDTAVYYCAAEYVVSTQEFDYCGQGTQVTVSS”, the “polyreactivity (PSR sort gate)” value was “low polyreactivity”.
On to “QVQLVESGGGLVQAGGSLRLSCAASGTNFRYYTMGWYRQAPGKERELVAAITYSGGTTYYADSVKGRFTISRDNAKNTVYLQMNSLKPEDTAVYYCAATFQANYFSGYYTVYLSDYWGQGTQVTVSS”, for which the “polyreactivity (PSR sort gate)” value was “low polyreactivity”.
As to “QVQLVESGGGLVQAGGSLRLSCAASGTTFARNAMGWYRQAPGKERELVAVISYSGGSSYADSVKGRFTISRDNAKNTVYFHMKSLKPEVTAVYYCAARAWYPSRYDFWGQGTQVIVSS”, the “polyreactivity (PSR sort gate)” value is listed as “high polyreactivity”.
